Read-outs that look alike come from different tables or passages of the source. Blank lines part the entries; values can stand above or below the binder they belong to.
Legend:
[1] = biological target: T1, human neonatal Fc receptor (hFcRn) (human, UniProt P55899 24-290; P61769 21-119); assay: BLI (Octet), association pH 6, dissociation pH 7.4
T1 construct: Biotinylated in the ELISA, Octet and yeast assays; also called human FcRn; huFcRn
Source text: To further characterize some of the variant Fc-fragments identified by the phage ELISA, binding of the variant Fc-fragments to FcRn at pH 6 and 7.4 was characterized for a subset of the identified variant Fc-fragments. DNA encoding selected variant Fc-fragment isolates, all from library L5, was introduced into a mammalian expression vector, which was used to transfect 293 6E cells using deacylated PEI essentially as described by Thomas et al. (Proc. Natl. Acad. Sci. 102(16): 5679-5684, 2005), the relevant portions of which are incorporated herein by reference. […] Concentrations were calculated using a standard curve created with a purified Fc fusion protein.
Biotinylated hFcRn at 100 nM was captured on streptavidin (SA) biosensors (ForteBio Inc., 18-5019) off-line at RT for 2 hours. Using these biotinylated hFcRn-coated SA biosensors in the Octet Red® system, association and dissociation of unlabeled proteins can be detected in real time via […] of light. […] Three association and dissociation conditions were set up: (1) association at pH 6 and dissociation at pH 6; (2) association at pH 6 and dissociation at pH 7.4; and (3) association at pH 7.4 and dissociation at pH 7.4. SA biosensors coated with biotinylated hFcRN were dipped into buffer at a specific pH for 1 min and then soaked in the samples containing variant Fc-fragments or controls at a specific pH for 5 min to allow binding to FcRn. The Fc biosensors were then soaked in buffer at a specific pH for 5 minutes more to allow the bound Fc-fragments to dissociate from FcRn. Detection of binding and dissociation of the Fc-fragments was possible through the use of bio-layer interferometry as implemented using the Octet Red® system, so that binding and dissociation were detected in real time.

[2] = biological target: T1, human neonatal Fc receptor (hFcRn); assay: SPR competition pH 5.5
cynomolgus monkey FcRn [3] = biological target: T2, cynomolgus monkey FcRn (cynomolgus monkey, UniProt Q8SPV9 24-297; Q8SPW0 21-119, limits assumed); assay: SPR competition pH 5.5
T2 construct: also called Cynomolgus FcRn

cynomolgus monkey FcRn [4] = biological target: T2, cynomolgus monkey FcRn; assay: SPR competition pH 7.4
[5] = biological target: T1, human neonatal Fc receptor (hFcRn); assay: SPR competition pH 5.5; remark: listed apart in the source
Method: (§1) Binding of variant Fc-fragments to human and cynomolgus monkey FcRn was tested using a BIAcore® T100 analysis system (GE Healthcare Bio-Sciences AB Private Limited Liability Company, Uppsala, Sweden) at both pH 5.5 and pH 7.4. The test consisted of incubating various concentrations of the variant Fc-fragments or control Fc-fragments with a fixed amount of human or cynomolgus monkey FcRn under binding conditions and subsequently measuring the amount of free, unbound FcRn in these mixtures by binding to a surface (in a flow cell of a CM5 (Biacore) chip) on which an Fc-fragment was immobilized. […] Thus, the amount of unbound FcRn in the mixture was quantitatively ascertained by surface plasmon resonance through use of the BIAcore® T100 analysis system. […] Initially, a group of 23 variant-Fc-fragments (Fc-5-1 being considered a control) identified in the experiments described above were tested for binding to human FcRn.
(§2) To obtain a reasonable signal for the different molecules and conditions tested, different assay conditions were used. For assays at pH 5.5, 10 nM of human or cynomolgus monkey FcRn was mixed with serial dilutions of the variant and control Fc-fragments being tested (which ranged from 0.1˜2,000 nM) and incubated for 1 hour at room temperature in 10 mM sodium acetate, pH 5.5, 150 mM NaCl, 0.005% P20, 0.1 mg/mL BSA. As positive controls, […] human and cynomolgus monkey FcRn were each incubated in the same solution, for the same time, and at the same temperature described immediately above, but without an added Fc-fragment.

cynomolgus monkey FcRn [6] = biological target: T2, cynomolgus monkey FcRn; assay: SPR competition pH 5.5; remark: listed apart in the source
Method: as §1, §2

T2 sequence (Q8SPV9 24-297 limits assumed, chain 1 of 2): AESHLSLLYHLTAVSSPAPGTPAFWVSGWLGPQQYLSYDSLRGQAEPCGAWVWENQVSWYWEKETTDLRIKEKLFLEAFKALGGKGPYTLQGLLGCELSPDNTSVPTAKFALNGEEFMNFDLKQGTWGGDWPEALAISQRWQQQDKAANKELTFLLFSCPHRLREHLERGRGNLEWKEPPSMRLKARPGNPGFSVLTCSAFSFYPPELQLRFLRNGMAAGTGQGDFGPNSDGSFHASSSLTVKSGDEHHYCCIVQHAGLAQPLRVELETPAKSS
T2 sequence (Q8SPW0 21-119 limits assumed, chain 2 of 2): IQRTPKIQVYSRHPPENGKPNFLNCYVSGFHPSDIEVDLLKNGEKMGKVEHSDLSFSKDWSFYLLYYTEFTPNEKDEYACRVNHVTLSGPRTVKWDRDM

EC50 [2]: 10 nM
EC50 (cynomolgus monkey FcRn [3]): 8.3 nM
B5: variant Fc-fragment Fc-5-106-M4T (other)
chain: EPKSCDKTHTCPPCPAPELLGGPSVFLFPPKPKDTLMISRTPEVTCVVVDVSHEDPEVKFNWYVDGVEVHNAKTKPREEQYNSTYRVVSVLTVLHQDWLNGKEYKCKVSNKALPAPIEKTISKAKGQPREPQVYTLPPSRDELTKNQVSLTCLVKGFYPSDIAVEWESNGGCVFNTFNCGGGQPENNYKTTPPVLDSDGSFFLYSKLTVDKSRWQQGNVFSCSVMHEALHNHYTQKSLSLSPGK

EC50 [2]: 6.2 nM
EC50 (cynomolgus monkey FcRn [3]): 5 nM
B6: variant Fc-fragment Fc-5-106-M4V (other)
chain: EPKSCDKTHTCPPCPAPELLGGPSVFLFPPKPKDTLMISRTPEVTCVVVDVSHEDPEVKFNWYVDGVEVHNAKTKPREEQYNSTYRVVSVLTVLHQDWLNGKEYKCKVSNKALPAPIEKTISKAKGQPREPQVYTLPPSRDELTKNQVSLTCLVKGFYPSDIAVEWESNGGCVFNVFNCGGGQPENNYKTTPPVLDSDGSFFLYSKLTVDKSRWQQGNVFSCSVMHEALHNHYTQKSLSLSPGK

EC50 [5]: 5.3 nM
EC50 (cynomolgus monkey FcRn [6]): 3.6 nM
EC50 [2]: 5.4 nM
EC50 (cynomolgus monkey FcRn [3]): 4.6 nM
B7: variant Fc-fragment Fc-5-106 (other)
chain: EPKSCDKTHTCPPCPAPELLGGPSVFLFPPKPKDTLMISRTPEVTCVVVDVSHEDPEVKFNWYVDGVEVHNAKTKPREEQYNSTYRVVSVLTVLHQDWLNGKEYKCKVSNKALPAPIEKTISKAKGQPREPQVYTLPPSRDELTKNQVSLTCLVKGFYPSDIAVEWESNGGCVFNMFNCGGGQPENNYKTTPPVLDSDGSFFLYSKLTVDKSRWQQGNVFSCSVMHEALHNHYTQKSLSLSPGK
notes: soluble elsewhere

binding result [1]: binds
B13: variant Fc-fragment 5-1-10 (other)
chain: EPKSCDKTHTCPPCPAPELLGGPSVFLFPPKPKDTLMISRTPEVTCVVVDVSHEDPEVKFNWYVDGVEVHNAKTKPREEQYNSTYRVVSVLTVLHQDWLNGKEYKCKVSNKALPAPIEKTISKAKGQPREPQVYTLPPSRDELTKNQVSLTCLVKGFYPSDIAVEWESGGGCGMPIEFCGGGPENNYKTTPPVLDSDGSFFLYSKLTVDKSRWQQGNVFSCSVMHEALHNHYTQKSLSLSPGK

binding result [1]: binds
B14: variant Fc-fragment 5-1-9 (other)
chain: EPKSCDKTHTCPPCPAPELLGGPSVFLFPPKPKDTLMISRTPEVTCVVVDVSHEDPEVKFNWYVDGVEVHNAKTKPREEQYNSTYRVVSVLTVLHQDWLNGKEYKCKVSNKALPAPIEKTISKAKGQPREPQVYTLPPSRDELTKNQVSLTCLVKGFYPSDIAVEWESGGCGMPIEFCGGPENNYKTTPPVLDSDGSFFLYSKLTVDKSRWQQGNVFSCSVMHEALHNHYTQKSLSLSPGK

More lines, now with the values behind:

B1: variant Fc-fragment 5-1-5 (other)
chain: EPKSCDKTHTCPPCPAPELLGGPSVFLFPPKPKDTLMISRTPEVTCVVVDVSHEDPEVKFNWYVDGVEVHNAKTKPREEQYNSTYRVVSVLTVLHQDWLNGKEYKCKVSNKALPAPIEKTISKAKGQPREPQVYTLPPSRDELTKNQVSLTCLVKGFYPSDIAVEWESNGQPGGCGMPIEFCGGENNYKTTPPVLDSDGSFFLYSKLTVDKSRWQQGNVFSCSVMHEALHNHYTQKSLSLSPGK
binding result [1]: binds

B2: variant Fc-fragment 5-1-6 (other)
chain: EPKSCDKTHTCPPCPAPELLGGPSVFLFPPKPKDTLMISRTPEVTCVVVDVSHEDPEVKFNWYVDGVEVHNAKTKPREEQYNSTYRVVSVLTVLHQDWLNGKEYKCKVSNKALPAPIEKTISKAKGQPREPQVYTLPPSRDELTKNQVSLTCLVKGFYPSDIAVEWESNGQPEGGCGMPIEFCGGNNYKTTPPVLDSDGSFFLYSKLTVDKSRWQQGNVFSCSVMHEALHNHYTQKSLSLSPGK
binding result [1]: binds

B3: variant Fc-fragment 5-1-2 (other)
chain: EPKSCDKTHTCPPCPAPELLGGPSVFLFPPKPKDTLMISRTPEVTCVVVDVSHEDPEVKFNWYVDGVEVHNAKTKPREEQYNSTYRVVSVLTVLHQDWLNGKEYKCKVSNKALPAPIEKTISKAKGQPREPQVYTLPPSRDELTKNQVSLTCLVKGFYPSDIAVEWESGGCGMPIEFCGGNGQPENNYKTTPPVLDSDGSFFLYSKLTVDKSRWQQGNVFSCSVMHEALHNHYTQKSLSLSPGK
binding result [1]: binds

B4: variant Fc-fragment Fc-5-106-M4I (other)
chain: EPKSCDKTHTCPPCPAPELLGGPSVFLFPPKPKDTLMISRTPEVTCVVVDVSHEDPEVKFNWYVDGVEVHNAKTKPREEQYNSTYRVVSVLTVLHQDWLNGKEYKCKVSNKALPAPIEKTISKAKGQPREPQVYTLPPSRDELTKNQVSLTCLVKGFYPSDIAVEWESNGGCVFNIFNCGGGQPENNYKTTPPVLDSDGSFFLYSKLTVDKSRWQQGNVFSCSVMHEALHNHYTQKSLSLSPGK
EC50 [2]: 2.6 nM
EC50 (cynomolgus monkey FcRn [3]): 3.2 nM
EC50 (cynomolgus monkey FcRn [4]): 970 nM

B8: variant Fc-fragment 5-1-3 (other)
chain: EPKSCDKTHTCPPCPAPELLGGPSVFLFPPKPKDTLMISRTPEVTCVVVDVSHEDPEVKFNWYVDGVEVHNAKTKPREEQYNSTYRVVSVLTVLHQDWLNGKEYKCKVSNKALPAPIEKTISKAKGQPREPQVYTLPPSRDELTKNQVSLTCLVKGFYPSDIAVEWESNGGGCGMPIEFCGGQPENNYKTTPPVLDSDGSFFLYSKLTVDKSRWQQGNVFSCSVMHEALHNHYTQKSLSLSPGK
binding result [1]: binds

B9: variant Fc-fragment 5-1-4 (other)
chain: EPKSCDKTHTCPPCPAPELLGGPSVFLFPPKPKDTLMISRTPEVTCVVVDVSHEDPEVKFNWYVDGVEVHNAKTKPREEQYNSTYRVVSVLTVLHQDWLNGKEYKCKVSNKALPAPIEKTISKAKGQPREPQVYTLPPSRDELTKNQVSLTCLVKGFYPSDIAVEWESNGQGGCGMPIEFCGGPENNYKTTPPVLDSDGSFFLYSKLTVDKSRWQQGNVFSCSVMHEALHNHYTQKSLSLSPGK
binding result [1]: binds

B10: variant Fc-fragment 5-1-1 (other)
chain: EPKSCDKTHTCPPCPAPELLGGPSVFLFPPKPKDTLMISRTPEVTCVVVDVSHEDPEVKFNWYVDGVEVHNAKTKPREEQYNSTYRVVSVLTVLHQDWLNGKEYKCKVSNKALPAPIEKTISKAKGQPREPQVYTLPPSRDELTKNQVSLTCLVKGFYPSDIAVEWEGGCGMPIEFCGGSNGQPENNYKTTPPVLDSDGSFFLYSKLTVDKSRWQQGNVFSCSVMHEALHNHYTQKSLSLSPGK
binding result [1]: binds

B11: variant Fc-fragment 5-1-8 (other)
chain: EPKSCDKTHTCPPCPAPELLGGPSVFLFPPKPKDTLMISRTPEVTCVVVDVSHEDPEVKFNWYVDGVEVHNAKTKPREEQYNSTYRVVSVLTVLHQDWLNGKEYKCKVSNKALPAPIEKTISKAKGQPREPQVYTLPPSRDELTKNQVSLTCLVKGFYPSDIAVEWESNGQPENNGGCGMPIEFCGGYKTTPPVLDSDGSFFLYSKLTVDKSRWQQGNVFSCSVMHEALHNHYTQKSLSLSPGK
binding result [1]: binds

B12: variant Fc-fragment 5-1-7 (other)
chain: EPKSCDKTHTCPPCPAPELLGGPSVFLFPPKPKDTLMISRTPEVTCVVVDVSHEDPEVKFNWYVDGVEVHNAKTKPREEQYNSTYRVVSVLTVLHQDWLNGKEYKCKVSNKALPAPIEKTISKAKGQPREPQVYTLPPSRDELTKNQVSLTCLVKGFYPSDIAVEWESNGQPENGGCGMPIEFCGGNYKTTPPVLDSDGSFFLYSKLTVDKSRWQQGNVFSCSVMHEALHNHYTQKSLSLSPGK
binding result [1]: binds

Source: patent publication US20140356358A1 (Amgen, published 2014)
